Assay results taken from US20150098945A1 (Daiichi Sankyo, published 2015).

T1: rat ROBO4 (pCI-raROBO4-transfected HEK293 cells) (rat, UniProt Q80W87 38-949 at identity 0.93))
T1 chain: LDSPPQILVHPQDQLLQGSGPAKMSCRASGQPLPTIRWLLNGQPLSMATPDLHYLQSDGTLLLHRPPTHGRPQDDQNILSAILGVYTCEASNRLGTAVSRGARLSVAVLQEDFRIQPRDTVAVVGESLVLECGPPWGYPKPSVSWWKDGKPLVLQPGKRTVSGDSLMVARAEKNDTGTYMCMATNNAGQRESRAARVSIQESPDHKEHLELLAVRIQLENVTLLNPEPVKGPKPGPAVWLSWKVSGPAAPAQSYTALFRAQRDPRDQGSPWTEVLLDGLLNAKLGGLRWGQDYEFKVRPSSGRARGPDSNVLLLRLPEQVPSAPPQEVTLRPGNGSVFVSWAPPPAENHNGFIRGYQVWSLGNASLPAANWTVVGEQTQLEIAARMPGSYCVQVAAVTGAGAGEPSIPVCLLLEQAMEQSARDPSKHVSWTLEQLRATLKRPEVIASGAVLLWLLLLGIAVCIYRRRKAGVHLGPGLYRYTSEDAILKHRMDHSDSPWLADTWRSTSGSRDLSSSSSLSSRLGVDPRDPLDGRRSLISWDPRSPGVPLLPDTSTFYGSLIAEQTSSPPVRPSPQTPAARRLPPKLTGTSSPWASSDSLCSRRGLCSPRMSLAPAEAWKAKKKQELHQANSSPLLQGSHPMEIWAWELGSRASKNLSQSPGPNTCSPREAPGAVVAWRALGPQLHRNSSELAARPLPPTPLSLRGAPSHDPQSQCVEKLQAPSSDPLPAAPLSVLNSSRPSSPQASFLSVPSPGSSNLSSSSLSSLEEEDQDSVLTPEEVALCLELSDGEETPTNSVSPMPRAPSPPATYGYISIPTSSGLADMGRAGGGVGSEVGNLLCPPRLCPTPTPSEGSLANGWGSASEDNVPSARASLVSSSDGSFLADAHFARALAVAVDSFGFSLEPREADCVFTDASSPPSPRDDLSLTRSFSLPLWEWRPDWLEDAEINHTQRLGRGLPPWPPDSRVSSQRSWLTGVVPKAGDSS

T2: N-terminal FLAG-tagged cynomolgus monkey ROBO4, cynoROBO4-1 (pCI-FLAG-cynoROBO4-1) (cynomolgus monkey, UniProt Q8WZ75 28-1007 (human entry))
T2 chain: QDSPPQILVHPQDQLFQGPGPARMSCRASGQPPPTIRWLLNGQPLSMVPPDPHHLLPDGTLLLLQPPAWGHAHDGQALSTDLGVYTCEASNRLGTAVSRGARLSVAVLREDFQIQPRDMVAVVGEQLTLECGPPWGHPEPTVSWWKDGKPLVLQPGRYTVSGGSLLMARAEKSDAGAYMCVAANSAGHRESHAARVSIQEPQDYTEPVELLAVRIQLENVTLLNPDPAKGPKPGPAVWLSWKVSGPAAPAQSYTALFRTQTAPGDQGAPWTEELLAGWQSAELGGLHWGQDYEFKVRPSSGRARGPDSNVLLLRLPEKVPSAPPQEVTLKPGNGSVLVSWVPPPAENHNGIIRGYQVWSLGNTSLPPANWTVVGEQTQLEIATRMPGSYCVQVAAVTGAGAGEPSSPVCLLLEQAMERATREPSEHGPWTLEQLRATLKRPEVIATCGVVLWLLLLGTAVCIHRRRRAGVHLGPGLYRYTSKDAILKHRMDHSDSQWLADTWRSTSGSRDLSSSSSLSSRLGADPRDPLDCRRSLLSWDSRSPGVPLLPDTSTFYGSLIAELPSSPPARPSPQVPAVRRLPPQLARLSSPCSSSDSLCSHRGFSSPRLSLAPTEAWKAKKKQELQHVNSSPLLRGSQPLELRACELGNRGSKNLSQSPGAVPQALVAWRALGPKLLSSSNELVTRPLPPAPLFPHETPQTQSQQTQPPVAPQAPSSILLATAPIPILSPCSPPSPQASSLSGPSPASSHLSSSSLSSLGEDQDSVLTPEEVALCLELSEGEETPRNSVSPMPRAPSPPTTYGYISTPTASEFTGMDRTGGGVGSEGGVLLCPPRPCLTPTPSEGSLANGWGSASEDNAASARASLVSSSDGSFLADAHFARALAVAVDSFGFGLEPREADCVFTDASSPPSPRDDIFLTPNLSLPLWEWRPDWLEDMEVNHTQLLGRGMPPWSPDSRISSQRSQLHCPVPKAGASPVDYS


Experiments:
[1] = target: T1, rat ROBO4 (pCI-raROBO4-transfected …); experiment: flow cytometry (FC500), HEK293 cells transfected with pCI-raROBO4, FITC goat anti-human IgG Fc; control histogram IgG (human IgG)
[2] = target: T2, N-terminal FLAG-tagged cynomolgus …; experiment: flow cytometry (FC500), HEK293 cells transfected with pCI-FLAG-cynoROBO4-1, antibody at 10 µg/mL, FITC goat anti-human IgG Fc; control histogram IgG (human IgG)

| Binder | binding result [1] | binding result [2] |
| --- | --- | --- |
| humanized MAb1 antibody H-2140 (antibody, human IgG2, kappa, V domains shown, Human IgG2 / kappa constant regions; also called hMAb1-H4-type heavy chain + hMAb1-L1-type light chain) VH: EVQLVESGGGLVQPGGSLRLSCAASGFTFSTYAMSWVRQAPGKRLEWVATISQGGTYTYYPDSVKGRFTISRDNAKNTLYLQMNSLRAEDTAVYYCARLIYYDYLDYWGQGTLVTVSS VL: DIVMTQSPLSLPVTLGEPASISCRSSQSLENSNGNTYLNWYLQKPGQSPQLLIYRVSNRFSGVPDRFSGSGSGTDFTLKISRVEAEDVGVYYCLQVTHVPWTFGPGTKVDIKR | no binding (tested: 10 µg/mL) |  |
| humanized MAb1 antibody H-2143 (antibody, human IgG2, kappa, V domains shown, Human IgG2 / kappa constant regions; also called hMAb1-H4-type heavy chain + hMAb1-L2-type light chain) VH: EVQLVESGGGLVQPGGSLRLSCAASGFTFSTYAMSWVRQAPGKRLEWVATISQGGTYTYYPDSVKGRFTISRDNAKNTLYLQMNSLRAEDTAVYYCARLIYYDYLDYWGQGTLVTVSS VL: DIVMTQSPLSLPVTLGEPASISCRSSQSLENENKNLYLNWYLQKPGQSPQLLIYRVSNRFSGVPDRFSGSGSGTDFTLKISRVEAEDVGVYYCLQVTHVPWTFGPGTKVDIKR |  | binds |
